What was measured:
[1] = test system: HTwist cells; assay: Boyden chamber migration assay, HTwist cells (single vs combined proteins); type: cell-based, human; settings: DKK1 1 μg/ml, SFRP1, BMP4 0.5 μg/ml
Experimental: Migration and invasion assays. For migration assays, 2×10^4 cells were seeded into 24-well cell culture inserts with 8-μm pores (Boyden Chambers, BD Falcon). […] After 12-48 hr, the cells on the upper surface of the filters were removed with a cotton swab. For visualization, cells on lower filter surfaces were fixed and stained with a Diff-Quick staining kit (Dade Behring).

[2] = test system: HMLE-iEMT-a cells; assay: Mammosphere assay, iEMT-cells; type: cell-based, human; settings: SFRP1 1 μg/ml/d, BMP4 0.5 μg/ml/d; extent comparable to HTwist and MSP cells
Experimental: FIGS. 5A-5H. Concomitant stimulation of Wnt and TGF-beta pathways allows HMLE^24+ cells to enter into a mesenchymal and SC-like state. (FIG. 5A) RT-PCR: N-Cadherin, Zeb1 and Zeb2, L32 was loading control, n=3. Prior RNA isolation, HMLE^24+-shGFP or -shSFRP1 (stable knockdown of SFRP1, FIG. 12A) cells were treated for 3 days with daily doses of indicated factors: anti-DKK1 antibody (10 μg/ml), anti-E-Cadherin antibody (1 μg/ml), TGF-beta 1 (5 ng/ml), Wnt5a (250 ng/ml), (FIG. 5B) Brightfield microscopy: images of control, TGF-beta- and iEMT-cocktail treated HMLE^24+ cells after 14 days of treatment as indicated (see also FIG. 12D). (FIG. 5C) RT-PCR: Zeb1, Zeb2, E-Cadherin and N-Cadherin, L32 was loading control, n=3. After 14 day treatment, cells were expanded in absence of further stimulation for 4 passages. Shown are PBS-treated control HMLE^24+-shGFP and HMLE^24+-shSFRP1 cells, two HMLE^24+-shGFP cultures treated with TGF-beta 1 (TGF-β-a and -b), two HMLE^24+-shSFRP1 cultures treated with the iEMT-cocktail (iEMT-a and -b). […] (FIG. 5G) Lung metastasis: cells expanded for 8 passages after cessation of treatment as described in (C) were transformed with RAS; 1.0×10^5 cells were injected into the mammary fat pads of mice; GFP-labeled metastases on the surface of the lungs were quantified; *control vs. all other groups, p<0.05, n=5 mice/group. […]

[3] = test system: MSP-RAS cells; assay: Subcutaneous tumorigenicity assay with proteins co-implanted and injected peri-tumorally; type: in vivo, mice; settings: subcutaneous limiting dilutions with protein; peri-tumoral injection at 1, 2, 3 and 7 days
Experimental: FIGS. 4A-4G. Autocrine Signaling controls tumorigenicity and metastasis of MSP-RAS cells. (FIG. 4A) Migration assay: RAS-transformed MSP (MSP-RAS) were seeded in Boyden Chamber migration assays and recombinant SFRP1 (1 μg/ml) and BMP4 protein (0.5 μg/ml) were added; *control vs. single treatment, p<1×10^−8, **single vs. double treatment with SFRP1 and BMP4 (S+B), p<1×10^−4, n=3. […] (FIG. 4E) Lung metastasis: fluorescence microscopy images of the major left lung lobe showing GFP-expressing metastatic nodules and quantification of the number of lung surface metastases; *control vs. SFRP1 treatment, p<0.05, **SFRP1 vs. BMP4 or double treatment (S+B), p<0.05, n=5 mice/group. (FIG. 4F) Liver metastasis: fluorescence microscopy images of the liver surface showing GFP-expressing micro-metastatic nodules after implantation of cells as described in (D) and quantification: 5 fields of liver surface were counted per mouse, *control vs. single treatment, p<0.05, **single vs. double treatment (S+B), p<0.05, n=5 mice/group. […]
Animal studies. […] Lung surface metastases were counted using a fluorescent microscope within 3 hr of specimen isolation.

B1: BMP4: Recombinant BMP4 protein obtained from Stemgent (protein, UniProt P12644 293-408, looked up)
Bone morphogenetic protein 4: SPKHHSQRARKKNKNCRRHSLYVDFSDVGWNDWIVAPPGYQAFYCHGDCPFPLADHLNSTNHAIVQTLVNSVNSSIPKACCVPTELSAISMLYLDEYDKVVLKNYQEMVVEGCGCR
- reduction of migration, single vs combined proteins [1]: 2 fold
- effect on mammosphere formation of iEMT-cells [2]: inhibited
- reduction of tumor incidence [3]: at least one order of magnitude

B2: SFRP1: Recombinant human SFRP1 protein (R&D Systems), secreted decoy receptor binding canonical and non-canonical Wnt ligands (protein, UniProt Q8N474 32-314, looked up)
Secreted frizzled-related …: SEYDYVSFQSDIGPYQSGRFYTKPPQCVDIPADLRLCHNVGYKKMVLPNLLEHETMAEVKQQASSWVPLLNKNCHAGTQVFLCSLFAPVCLDRPIYPCRWLCEAVRDSCEPVMQFFGFYWPEMLKCDKFPEGDVCIAMTPPNATEASKPQGTTVCPPCDNELKSEAIIEHLCASEFALRMKIKEVKKENGDKKIVPKKKKPLKLGPIKKKDLKKLVLYLKNGADCPCHQLDNLSHHFLIMGRKVKSQYLLTAIHKWDKKNKEFKNFMKKMKNHECPTFQSVFK
- reduction of migration, single vs combined proteins [1]: 5 fold
- effect on mammosphere formation of iEMT-cells [2]: inhibited
- reduction of tumor incidence [3]: at least one order of magnitude

— patent US9308238B2, “Compositions and methods for modulating EMT and uses thereof” (Whitehead Institute for Biomedical Research, priority 2010, dated 2016)
